What was measured:
[1] = molecular target: Cno DIL domain (aa 613–1006) (Drosophila) (UniProt Q24279); assay: SEC-MALS; Superdex 200, 0.5 ml/min; for the DIL domain: 100 ul at 5.0 mg/ml injected, 300 mM NaCl, 25 mM Tris-HCl pH 8.5, 1 mM MgCl2, 0.1% beta-mercaptoethanol, 0.2 g/l sodium azide; monomer and homodimer peaks; conditions for FHA-DIL-PDZ not given
[2] = molecular target: Cno FHA-DIL-PDZ protein (aa 372–1110) (Drosophila) (UniProt Q24279); assay: as above

| percent of injected protein eluted as homodimer [1] | stoichiometry N [1] | percent of injected protein eluted as homodimer [2] | stoichiometry N [2] | Substance |
| --- | --- | --- | --- | --- |
| 27% | 2 | – | – | Cno DIL domain (aa 613–1006) (from UniProt Q24279 613-1006) (domain or fragment) |
| – | – | 7% | 2 | Cno FHA-DIL-PDZ protein (aa 372–1110) (from UniProt Q24279 372-1110) (domain or fragment) |

Reference: PMC11006394
